# Laboratory results from the supplement of paper PMC7125110.
# ± gives the standard error. Variants at the floor of the assay were thinned out.
# B1: glmS ribozyme (parent)
# chain: AUAAAAGCGCCAGAACUACAGAAAUGUAGUUGACGAGGAGGAGGUUUAUCGAAUUUUCGGCGGAUGCCUCCAAA
# Variants of: B1
# Test: self-cleavage kobs at 2500 uM GlcN6P; higher = faster cleavage; RNA array
# Conditions: with glucosamine-6-phosphate
# How it was run: (§1)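 Barcoded glmS ribozyme variants on sequenced MiSeq chips were transcribed in situ by E. coli RNA polymerase and tracked through a hybridised Cy3 probe at 37 °C. Glucosamine-6-phosphate (40 μM to 10 mM) in HEPES/KCl/Mg(OAc)2 buffer was flowed in, and tiles were imaged over ~14 h. Signals were normalised to baseline and to non-cleaving reference variants; per-tile medians were fit to one- or two-exponential decays to give kobs. kcat and KM came from weighted Michaelis–Menten fits across concentrations.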
row,Variant,self-cleavage kobs at 2500 uM GlcN6P [s⁻¹]
1,AUAAAAGCGCCAGAACUACAGAAAUGUAGUAGACGAGGAGUAGGUUUAUCGAAUUUUCGGCGGAUGCCUUCAAA,0.00307 ± 0.00088
2,AUAAAAGCGCCAGAACUACAGAAAUGUAGUUCCCGAGGAGGAGGUUUAUCGAAUUUUCGGCGUAUACCUCCAAA,< 1e-05
3,AUAAAAGCGCCAGAACUACAGAAAUGUAGUCGACGAGGAUGUGGUUUAUCGAAUUUUCGGCGCAUGCCUCCAAA,< 1e-05
4,AUAAAAGCGCCAGAACUACAGAAAUGUAGUUCACGAGGAGGAGGUUUAUCGAAUAUUCGGCGGAUGCCUCCAAA,4.27e-05 ± 1.5e-05
5,AUAAAAGCGCCAGAACUACAGAAAUGUAGUGGACGAGGAGGAGGUUUAUCGCAUUUUGGGCGGAUGCCUCCAAA,< 1e-05
6,AUAAAAGCGCCAGAACUACAGAAAUGUAGUCUACGAGGAGGAGGUUUAUCGAACUUUAGGCGGAUGCCUCCAAA,0.000137 ± 4.2e-05
7,AUAAAAGCGCCAGAACUACAGAAAUGUAGUUAACGAGGAGCAGGUUUAUCGAAUUUUCGGCGGAUGCUUCCAAA,< 1e-05
8,AUAAAAGCGCCAGAACUACAGAAAUGUAGUGGACGAGGAGGAGGUUUAUCGAAUUUUCGGCGCAUGCCUCCAAA,< 1e-05
9,AUAAAAGCGCCAGAACUACAGAAAUGUAGUGGACGCGAAAGAGGUUUAUCGAAUUUUCGGCGGAUGCCUCCAAA,< 1e-05
10,AUAAAAGCGCCAGAACUACAGAAAUGUAGUGGACGAGGAGGAGGUUUAUCGAAUAUUCGGCGGAUGACUCCAAA,0.00299 ± 0.00085
11,AUAAAAGCGCCAGAACUACAGAAAUGUAGUGGACGAGGGGGAGGUUUAUCGAAUUUACGGCGGGUGCCUCCAAA,5.58e-05 ± 2e-05
12,AUAAAAGCGCCAGAACUACAGAAAUGUAGUUUACGUCGAGGAGGUUGAUCGCAUUUUCGGCGGAUGGCUCCAAA,< 1e-05
13,AUAAAAGCGCCAGAACUACAGAAAUGUAGUCGACGUGGAGGAGGUUCAUCGAAUUUUCGGCGGAUGCCUCCAAA,< 1e-05
14,AUAAAAGCGCCAGAACUACAGAAAUGUAGUUUACGAAGAGGAGGUUUAUCGAAUUUUCGGCGCAUGCCUCCAAA,< 1e-05
15,AUAAAAGCGCCAGAACUACAGAAAUGUAGUCGACGAGGAGGAGGAUUAUCGAAUUUCCGGCGGAUGCCUCCAAA,4.12e-05 ± 1.4e-05
16,AUAAAAGCGCCAGAACUACAGAAAUGUAGUUCACGAUGAUGAGGUUUAUCGAAUGUUCGGCGGAUGCCUCCAAA,< 1e-05
17,AUAAAAGCGCCAGAACUACAGAAAUGUAGGUGACGAGGAGGAGGUCUAUAGAAUUUUCGGCGGCUGCCUCCAAA,< 1e-05

row,Variant,self-cleavage kobs at 2500 uM GlcN6P [s⁻¹]
1,AUAAAAGCGCCAGAACUACAGAAAUGUAGUGGACGAUGAGGAGGUUUAUCGAAUUGUCGGCGGAUGCCUCCAAA,< 1e-05
2,AUAAAAGCGCCAGAACUACAGAAAUGUAGUUUACGAGGAGGCGGUUUAUCGAAAUUUCGGCGGAUGCCUCCAAA,< 1e-05
3,AUAAAAGCGCCAGAACUACAGAAAUGUAGUUAACGAGGAGGUGGUCUAUCGAAUUUUCGGCGGAUGCCUCCAAA,< 1e-05
4,AUAAAAGCGCCAGAACUACAGAAAUGUAGGUGACGAGGAGGAGGUUUAUCGAAUUUACGUCGGAUGCCUCCAAA,< 1e-05
5,AUAAAAGCGCCAGAACUACAGAAAUGUAGUAGACGAGGAGGAGGUUUAUCGGAUUUUCGGCGGAUGCCUGCAAA,5.02e-05 ± 1.1e-05
6,AUAAAAGCGCCAGAACUACAGAAAUGUAGUUAACGAGGAGGAGGUUUAUCGAAUUUUCGGCGGAUGCGUGCAAA,< 1e-05
7,AUAAAAGCGCCAGAACUACAGAAAUGUAGUAGACGAGGUGGAGGUUUAUCGAAUUUUCGGCGGAUGCCUUCAAA,0.00182 ± 0.0009
8,AUAAAAGCGCCAGAACUACAGAAAUGUAGUCGACUAGGAGGAGGUUUUGCGAAUUUCCGGCGGAUGCCUCCAAA,< 1e-05
9,AUAAAAGCGCCAGAACUACAGAAAUGUAGUUAACGAGGAGGAGGCUUAUCGAAUUUUCGGCGGAUGCCUCUAAA,7.08e-05 ± 2.9e-05
10,AUAAAAGCGCCAGAACUACAGAAAUGUAGUUAACGAGUAGGAGGUUUAUCGACUCUUCGCCGGAUGCCUCUAAA,< 1e-05
11,AUAAAAGCGCCAGAACUACAGAAAUGUAGUUAACGAGGAGGAGGUUUAACGAAUUUUCGGCGGAGGCCUCCAAA,< 1e-05
12,AUAAAAGCGCCAGAACUACAGAAAUGUAGUUUACGACGAGGCGGUUUAUCGAAUUUUCGGCGGAUGCCUCCAAA,< 1e-05
13,AUAAAAGCGCCAGAACUACAGAAAUGUAGUUCACGAGGAGCACGUUUAUCGAAUUUUCGGAGGAUGCCUCCAAA,< 1e-05
14,AUAAAAGCGCCAGAACUACAGAAAUGUAGUCGACGAGGAGGUGGUUUAUCGCAUUUUCGGCGGAUGCCUCAAAA,< 1e-05
15,AUAAAAGCGCCAGAACUACAGAAAUGUAGUUCACGAGGAGGAGGUUUAUUGAAUUUUCGGCGGAUGCCACCAAA,0.000245 ± 8.3e-05
16,AUAAAAGCGCCAGAACUACAGAAAUGUAGUUUACGAGGAGGAGGCUUAUCGAAUUUUCGGCGGAUGCCUCCAAA,1.98e-05 ± 7.1e-06
17,AUAAAAGCGCCAGAACUACAGAAAUGUAGUUCACCAGGAGGACGUUUAUCGAAUUUUUGGCGGAUGCCCCCAAA,< 1e-05

# Variants of: B1
# Test: self-cleavage kobs at 10000 uM GlcN6P; higher = faster cleavage; RNA array
# Conditions: with glucosamine-6-phosphate
# How it was run: as §1
row,Variant,self-cleavage kobs at 10000 uM GlcN6P [s⁻¹]
1,AUAAAAGCGCCAGAACUACAGAAAUGUAGUUCACGAGGAGGAGGUUUAUCGAAUAUUCGGCGGAUGCCUCCAAA,9.57e-05 ± 1.5e-05
2,AUAAAAGCGCCAGAACUACAGAAAUGUAGUAGACGAGGAGGAGGUUUAUCGGAUUUUCGGCGGAUGCCUGCAAA,6.16e-05 ± 1.8e-05
3,AUAAAAGCGCCAGAACUACAGAAAUGUAGUUUACGAGGAGGAGGCUUAUCGAAUUUUCGGCGGAUGCCUCCAAA,4.42e-05 ± 5.9e-06
